Test results: the supplement of paper PMC7125110
± gives the standard error. This sample holds only a part of the variants without activity.

B1: glmS ribozyme (parent)
chain: AUAAAAGCGCCAGAACUACAGAAAUGUAGUUGACGAGGAGGAGGUUUAUCGAAUUUUCGGCGGAUGCCUCCAAA

Variants of: B1
Assay: self-cleavage kobs at 10000 uM GlcN6P; higher = faster cleavage; RNA array
Details: with glucosamine-6-phosphate
Procedure, shortened: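 Barcoded glmS ribozyme variants on sequenced MiSeq chips were transcribed in situ by E. coli RNA polymerase and tracked through a hybridised Cy3 probe at 37 °C. Glucosamine-6-phosphate (40 μM to 10 mM) in HEPES/KCl/Mg(OAc)2 buffer was flowed in, and tiles were imaged over ~14 h. Signals were normalised to baseline and to non-cleaving reference variants; per-tile medians were fit to one- or two-exponential decays to give kobs. kcat and KM came from weighted Michaelis–Menten fits across concentrations.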

Row | Variant | self-cleavage kobs at 10000 uM GlcN6P [s⁻¹]
1 | G40A G44U A64C | < 1e-05
2 | G35A G60C C61G A64C G66A | < 1e-05
3 | U45A A52U C61A | < 1e-05
4 | G44U U54C | 0.000226 ± 5e-05
5 | G35U A53U U56A | < 1e-05
6 | A39C A42U U46G | 3.93e-05 ± 1.5e-05
7 | A33G A48C C50U C70G | < 1e-05
8 | G38A A39U U54A | < 1e-05
9 | A42C U45C C50U | < 1e-05
10 | G37U G38A G51U | < 1e-05
11 | C50U G59U A64U | < 1e-05
12 | G43U U55G | 3.47e-05 ± 1.3e-05
13 | C34G G59C C61A A64G | < 1e-05
14 | G35C U47A G66U | < 1e-05
15 | G37C G51A U69A | < 1e-05
16 | G41A C61G A64U | < 1e-05
17 | G43U G62A | < 1e-05
18 | G38U A52U C58U | < 1e-05
19 | G37U G60U U69C | < 1e-05
20 | A39G C67A C68A | 6.69e-05 ± 1.7e-05
21 | C61U G62U C67U | < 1e-05
22 | G43C U55A G60U | < 1e-05
23 | G38U A53U | < 1e-05

Row | Variant | self-cleavage kobs at 10000 uM GlcN6P [s⁻¹]
24 | A36C U54C G60U C61A G62U | < 1e-05
25 | C50U C58A C67U | < 1e-05
26 | G37U A52G A64C C70A | < 1e-05
27 | U56A C58A C67G | 7.18e-05 ± 2.4e-05
28 | A39U G51U C70A | < 1e-05
29 | A39C U57A C58G G63U | < 1e-05
30 | G38C A53C C67U | < 1e-05
31 | A36G A48C C68A | < 1e-05
32 | A53G U56G C71G | 0.00022 ± 5.2e-05
33 | G40A G59U C61A | < 1e-05
34 | G35C U45A C58G | < 1e-05
35 | U54C G59A | 8.08e-05 ± 1.3e-05
36 | A39G G44A U57A C61U C70U | < 1e-05
37 | C50G A53G C68G C70A | 7.46e-05 ± 1.9e-05
38 | A39C C50A A53C G66U | < 1e-05
39 | A33U C58G C67U C68A | 5.11e-05 ± 1.6e-05
40 | U49A C50A | < 1e-05
41 | G35C U45G U47A U65C | < 1e-05
42 | A33U C50G C61A C70U | 6e-05 ± 1.8e-05
43 | G35U U45G C67G | < 1e-05
44 | A39G G44U C71U | 3.94e-05 ± 1.7e-05
45 | G43C G51U G62U | < 1e-05
46 | A52C U54G C71G | < 1e-05

Row | Variant | self-cleavage kobs at 10000 uM GlcN6P [s⁻¹]
47 | G38U A39G A42C A48U | < 1e-05
48 | A48U C61A C70G | < 1e-05
49 | A52U G66U C67A | 8.48e-05 ± 2.8e-05
50 | G35U G40C G59C G62A U69C | < 1e-05
51 | A33G G40U A52G C58A | < 1e-05
52 | U56A C67U C71G | 5.21e-05 ± 8.7e-06
53 | G37C U54G | 3.98e-05 ± 8.6e-06
54 | A42G U45C U46C | 0.00102 ± 0.00019
55 | A39C G40U G59C C70U | < 1e-05
56 | A53U U65G C67U | 0.00235 ± 0.00042
57 | G40C A52C | < 1e-05
58 | G37A G43U U55G C68G | 0.000281 ± 7.9e-05
59 | U54A G60U A64U | < 1e-05
60 | G44C U55C U57C G59U | < 1e-05
61 | G44A U56A A64G | 0.000101 ± 2.4e-05
62 | A36C U46G U49G | 0.000106 ± 2.7e-05
63 | G37C A53G U55G | 3.2e-05 ± 1.4e-05
64 | G43U U46G C50U C58A | < 1e-05
65 | G37C G41A G51U G62U C67A | < 1e-05
66 | U54C C58G G63C | < 1e-05
67 | G44A U65G C67U | 0.00292 ± 0.00045
68 | C34A A36C G60A | < 1e-05
69 | C34U U49C C50G C61U C68G C71G | 0.000303 ± 7.9e-05

Row | Variant | self-cleavage kobs at 10000 uM GlcN6P [s⁻¹]
70 | G44U A64C C70U | < 1e-05
71 | U56C U57A | 8.46e-05 ± 1.3e-05
72 | G66A C68U C71A | 0.000105 ± 1.9e-05
73 | C50U G51U C70U | < 1e-05
74 | U54A G60A | 3.42e-05 ± 1.5e-05
75 | C61A U69C | < 1e-05
76 | C50U G60U C70A | < 1e-05
77 | U49A U56A A64C | < 1e-05
78 | G35A A52C U55C | < 1e-05
79 | G38U U49C G63A | < 1e-05
80 | U45C U54G C70A | 5.88e-05 ± 1.3e-05
81 | G63A A64U C68U | < 1e-05
82 | A36C U47G U65G | < 1e-05
83 | G41C G59U G60C | < 1e-05
84 | A48G G66A | 2.4e-05 ± 1.2e-05
85 | A42C G51A G63U | < 1e-05
86 | G51C A52U U57C G59U | < 1e-05
87 | C50U U55C | 4.47e-05 ± 1.1e-05
88 | U45C U49G | 3.08e-05 ± 1.4e-05
89 | U46A C68A C71A | < 1e-05
90 | C34A G35A G40U G41C U46G | < 1e-05
91 | G38C A39U U46C | < 1e-05
92 | A39C U46A U55A U57A | < 1e-05

Row | Variant | self-cleavage kobs at 10000 uM GlcN6P [s⁻¹]
93 | G44U U57G G66A C70G | < 1e-05
94 | G41C C50A G62U | < 1e-05
95 | A36G A64G C70G | < 1e-05
96 | A39C G43C C50A | < 1e-05
97 | G37A G51U C68G | < 1e-05
98 | G40U U45A C70G | 0.000163 ± 3.4e-05
99 | U47G A48U C68U | 9.1e-05 ± 1.8e-05
100 | A36G G44U A53C | < 1e-05
101 | G37A U56C G66U | 2.45e-05 ± 1.1e-05
102 | C50U A53U G62A | < 1e-05
103 | U57G A64G | 9.48e-05 ± 1.8e-05
104 | G43A U46A G59C | < 1e-05
105 | C50A U55G U57C | < 1e-05
106 | G35C G51C C58A | < 1e-05
107 | U54A A64C | 0.000157 ± 2.8e-05
108 | A36G A42C G59U | < 1e-05
109 | A42U U65G U69G | 0.00259 ± 0.00036
110 | U46C G62A G66A C71A | < 1e-05
111 | G35A A36U G43U | < 1e-05
112 | C34U A36C | < 1e-05
113 | A39U U47A C67U | 0.00456 ± 0.0007
114 | G44U A48G C50U C71U | < 1e-05
115 | A36U C68G C71U | 5.72e-05 ± 2.3e-05

Row | Variant | self-cleavage kobs at 10000 uM GlcN6P [s⁻¹]
116 | G35U G41U A42C G62C C70A | < 1e-05
117 | G40C A53U C61A | < 1e-05
118 | G40A A53G C70A | 0.000157 ± 3.7e-05
119 | A42U U46C C50A A53U | < 1e-05
120 | G37U G43U G59A | < 1e-05
121 | G44C U56G | 5.6e-05 ± 1.2e-05
122 | A39C G51A C58U G62U | < 1e-05
123 | U49A A53C G63U C71G | < 1e-05
124 | G41C U56G G62U | < 1e-05
125 | G38A C61A C71U | < 1e-05
126 | U45A U46C C67G | 0.000673 ± 0.00013
127 | U47C U65G C71U | 0.00338 ± 0.00055
128 | A39G C61A G62U | < 1e-05
129 | A39C G44A G59C | < 1e-05
130 | U65C U69C | 0.000106 ± 2.2e-05
131 | A33G U47A C70U | < 1e-05
132 | U47G G66C | 0.000614 ± 0.00011
133 | A42U G62A U69G | < 1e-05
134 | G40C G41U G62A | < 1e-05
135 | C34U G38A C70G | 3.44e-05 ± 1.7e-05
136 | G38A A42U C50G C67G | 0.000231 ± 6.8e-05
137 | G38U U45A C58A U65C | < 1e-05
138 | G37A A52G C67U | 5.39e-05 ± 2.2e-05

Row | Variant | self-cleavage kobs at 10000 uM GlcN6P [s⁻¹]
139 | G43A G59C C67G | < 1e-05
140 | C34U U45A C50A | < 1e-05
141 | A39U U49G U54G | 0.00053 ± 0.00012
142 | G38U G41U A48U A52G U56C G60A C68G C71U | < 1e-05
143 | U57C C58A | 2.32e-05 ± 9.2e-06
144 | G37C G63U | < 1e-05
145 | G41U A53G C71A | 0.000206 ± 4.7e-05
146 | U47A A53U C68G | 4.16e-05 ± 1.7e-05
147 | A36U U49G G63C | < 1e-05
148 | A33U U57C C67G U69A | < 1e-05
149 | U47G U55C C67A | 0.000309 ± 4.9e-05
150 | A36G A48G C70A | < 1e-05
151 | A52G U65G C71G | 2.3e-05 ± 1.1e-05
152 | G37U G38A U45G G51A | < 1e-05
153 | C34A C67G C70A | < 1e-05
154 | U47A C50G G63U U69G | 5.11e-05 ± 1.5e-05
155 | G44A A64G | 3.74e-05 ± 1.4e-05
156 | C34A U46A G51A | < 1e-05
157 | A48G A52G C71G | < 1e-05
